Holding throughout (experiment): SPR; antibody captured in bivalent format
A general note: In SPR one partner is held on a chip, and binding of the other changes the refractive index at the surface.

Assay [1] deals with T1, His-tagged rhesus CD180 from Creative Biomart (CD180-1598R) (rhesus, UniProt F7GX75 24-626).
T1 chain: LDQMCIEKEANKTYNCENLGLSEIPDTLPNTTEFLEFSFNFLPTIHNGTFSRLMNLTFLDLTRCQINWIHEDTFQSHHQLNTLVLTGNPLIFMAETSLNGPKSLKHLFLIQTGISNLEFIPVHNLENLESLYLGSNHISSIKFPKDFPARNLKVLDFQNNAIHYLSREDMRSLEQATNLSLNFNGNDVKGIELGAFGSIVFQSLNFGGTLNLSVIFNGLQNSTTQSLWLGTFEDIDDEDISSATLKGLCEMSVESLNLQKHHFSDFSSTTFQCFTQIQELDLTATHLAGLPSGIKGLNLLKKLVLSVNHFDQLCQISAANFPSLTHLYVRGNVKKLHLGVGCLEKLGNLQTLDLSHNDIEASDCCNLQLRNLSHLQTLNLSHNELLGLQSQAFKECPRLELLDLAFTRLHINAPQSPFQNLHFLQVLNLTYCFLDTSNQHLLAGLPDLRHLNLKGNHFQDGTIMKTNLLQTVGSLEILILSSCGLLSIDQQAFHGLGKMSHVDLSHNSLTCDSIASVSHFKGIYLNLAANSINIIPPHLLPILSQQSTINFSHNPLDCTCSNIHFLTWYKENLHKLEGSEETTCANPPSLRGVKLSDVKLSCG

For assay [2], the target named is T2, human CD180 extracellular domain (ECD) HIS-tagged protein (Creative Biomart, CD180-3900H) (human, UniProt Q99467 24-626).
T2 chain: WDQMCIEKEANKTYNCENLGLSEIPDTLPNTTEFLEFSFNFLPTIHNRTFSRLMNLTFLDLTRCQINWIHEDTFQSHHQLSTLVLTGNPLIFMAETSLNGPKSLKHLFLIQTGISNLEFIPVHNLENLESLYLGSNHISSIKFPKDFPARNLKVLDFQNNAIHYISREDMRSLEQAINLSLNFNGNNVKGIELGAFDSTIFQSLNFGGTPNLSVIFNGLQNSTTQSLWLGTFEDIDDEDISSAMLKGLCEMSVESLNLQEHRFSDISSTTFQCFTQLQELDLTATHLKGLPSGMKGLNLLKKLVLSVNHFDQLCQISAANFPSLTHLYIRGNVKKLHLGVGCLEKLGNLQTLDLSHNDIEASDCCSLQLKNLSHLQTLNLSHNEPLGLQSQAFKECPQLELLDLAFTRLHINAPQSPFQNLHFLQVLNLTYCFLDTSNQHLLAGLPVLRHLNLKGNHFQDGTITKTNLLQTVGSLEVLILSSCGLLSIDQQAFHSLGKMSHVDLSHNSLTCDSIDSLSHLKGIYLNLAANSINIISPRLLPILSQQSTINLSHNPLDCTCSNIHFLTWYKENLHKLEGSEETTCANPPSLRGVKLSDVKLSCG

In assay [3] the target is T3, human CD180 extracellular domain (ECD) HIS-tagged protein (Sino Biological, 11370-H08H) (human, UniProt Q99467 24-626).
T3 chain: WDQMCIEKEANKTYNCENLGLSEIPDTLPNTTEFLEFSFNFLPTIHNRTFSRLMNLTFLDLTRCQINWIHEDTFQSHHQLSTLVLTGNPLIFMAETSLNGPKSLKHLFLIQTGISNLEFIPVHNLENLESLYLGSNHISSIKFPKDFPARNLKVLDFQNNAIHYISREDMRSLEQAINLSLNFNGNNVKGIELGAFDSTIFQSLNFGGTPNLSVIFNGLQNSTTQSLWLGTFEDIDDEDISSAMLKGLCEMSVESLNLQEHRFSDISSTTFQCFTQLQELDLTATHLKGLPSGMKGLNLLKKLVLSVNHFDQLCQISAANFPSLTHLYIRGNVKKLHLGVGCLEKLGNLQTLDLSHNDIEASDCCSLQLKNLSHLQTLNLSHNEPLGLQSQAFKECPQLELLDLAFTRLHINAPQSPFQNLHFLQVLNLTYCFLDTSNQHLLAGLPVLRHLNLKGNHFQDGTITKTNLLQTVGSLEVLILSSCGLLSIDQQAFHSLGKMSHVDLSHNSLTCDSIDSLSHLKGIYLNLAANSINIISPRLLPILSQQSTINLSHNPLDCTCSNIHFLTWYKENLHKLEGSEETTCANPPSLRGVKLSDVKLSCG

B1: Ab-006 (antibody, V domains shown)
VH: EVQLVESGGGLVKPGGSLRLSCTASGFTFDDYDMTWVRQAPGKGLEWVSGINWNGGNTDYADSVKGRFTISRDNTKNSLYLQMNSLRAEDTALYYCARKGRDIVVVKGFYYHYYYMDVWGKGITVTVSS
VL: not shown
As to B1, the Kd was determined as 0.4 nM in assay [1], 12 nM in assay [2] and 6.8 nM in assay [3].

B2: Ab-007 (antibody, V domains shown)
VH: EVQLVESGGGVVRPGGSLRLSCAASGFTFDDYAMSWVRQAPGKGLEWVSDINWNGGTTSYADSVKGRFTISRDNAKNSLFLQMNSLRAEDTALYYCARKGRDTVVVKGYYYFSYYMDVWGKGSTVTVSS
VL: not shown
As for B2, the results for the Kd in assay [1], in assay [2] and in assay [3] were 0.05 nM, 4.7 nM and 3.4 nM, respectively.

(Values after patent US20260232824A1 (published 2026).)
